The supplement of paper PMC9112550, “Optimization of the antimicrobial peptide Bac7 by deep mutational scanning” (BMC Biology, 2022)

Test system: Escherichia coli TOP10
Assay: shrunken log2 fold change of peptide-encoding DNA abundance (4.5 h post-induction vs induction); higher = less antimicrobial activity (less host growth inhibition)
Details: time post-induction: 4.5 h; library: site-saturation at positions 5, 18, 19, 20
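Further: peptides expressed intracellularly from a pBAD plasmid library in pooled LB shake-flask culture, induced with 0.3% L-arabinose, DNA abundance read by NGS, three biological replicates, DESeq2 with apeglm shrinkage.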

Sequence	shrunken log2 fold change
RRIRWRPPRLPRPRPRPMFRPRP	-0.129
RRIRLRPPRLPRPRPRPISSPRP	0.106
RRIRSRPPRLPRPRPRPLKIPRP	-0.309
RRIRTRPPRLPRPRPRPADNPRP	-0.294
RRIRARPPRLPRPRPRPMMYPRP	-0.134
RRIRRRPPRLPRPRPRPREDPRP	0.811
RRIRHRPPRLPRPRPRPMMKPRP	0.0118
RRIRYRPPRLPRPRPRPFSFPRP	-0.35
RRIRARPPRLPRPRPRPDKEPRP	0.0435
RRIRTRPPRLPRPRPRPCRAPRP	-0.0539
RRIRLRPPRLPRPRPRPKRRPRP	-0.259
RRIRVRPPRLPRPRPRPKNVPRP	-0.0901
RRIRDRPPRLPRPRPRPGGWPRP	0.975
RRIRHRPPRLPRPRPRPHYEPRP	0.0367
RRIRPRPPRLPRPRPRPTRRPRP	0.591
RRIRHRPPRLPRPRPRPPDHPRP	0.265
RRIRPRPPRLPRPRPRPKFWPRP	0.414
RRIRSRPPRLPRPRPRPDCIPRP	-0.163
RRIRWRPPRLPRPRPRPNAKPRP	0.188
RRIRGRPPRLPRPRPRPQEGPRP	0.0358
RRIRTRPPRLPRPRPRPIQYPRP	-0.044
RRIRYRPPRLPRPRPRPCEAPRP	-0.123
RRIRSRPPRLPRPRPRPEPMPRP	0.54
RRIRGRPPRLPRPRPRPGYHPRP	0.0713
RRIRARPPRLPRPRPRPNLGPRP	0.0306
RRIRMRPPRLPRPRPRPLQMPRP	2.29

Sequence	shrunken log2 fold change
RRIRPRPPRLPRPRPRPRIWPRP	0.362
RRIRCRPPRLPRPRPRPKMIPRP	-0.727
RRIRPRPPRLPRPRPRPTHCPRP	0.1
RRIRGRPPRLPRPRPRPEPTPRP	1.52
RRIRYRPPRLPRPRPRPHMRPRP	-0.02
RRIRCRPPRLPRPRPRPIKHPRP	-0.389
RRIRMRPPRLPRPRPRPASGPRP	0.652
RRIRKRPPRLPRPRPRPTYAPRP	0.431
RRIRDRPPRLPRPRPRPHQAPRP	-0.0175
RRIRWRPPRLPRPRPRPWWVPRP	0.13
RRIRCRPPRLPRPRPRPMGVPRP	-0.152
RRIRWRPPRLPRPRPRPAYAPRP	0.531
RRIRWRPPRLPRPRPRPSLVPRP	-0.0104
RRIRARPPRLPRPRPRPFEKPRP	-0.122
RRIRFRPPRLPRPRPRPTWIPRP	-0.222
RRIRYRPPRLPRPRPRPSNMPRP	-1.1
RRIRHRPPRLPRPRPRPSNIPRP	-0.332
RRIRGRPPRLPRPRPRPLFQPRP	0.266
RRIRVRPPRLPRPRPRPESNPRP	0.0327
RRIRQRPPRLPRPRPRPPVAPRP	0.121
RRIRARPPRLPRPRPRPCWFPRP	0.107
RRIRLRPPRLPRPRPRPCGYPRP	-0.111
RRIRMRPPRLPRPRPRPEETPRP	0.0205
RRIRFRPPRLPRPRPRPKVPPRP	-0.109
RRIRQRPPRLPRPRPRPIPYPRP	-0.0122
RRIRQRPPRLPRPRPRPQDNPRP	-0.304

Sequence	shrunken log2 fold change
RRIRTRPPRLPRPRPRPCVFPRP	-0.215
RRIRIRPPRLPRPRPRPACNPRP	-0.363
RRIRDRPPRLPRPRPRPNSIPRP	-0.211
RRIRSRPPRLPRPRPRPWVTPRP	-0.89
RRIRIRPPRLPRPRPRPSGEPRP	-0.246
RRIRRRPPRLPRPRPRPKRTPRP	0.759
RRIRPRPPRLPRPRPRPWDYPRP	-0.19
RRIRHRPPRLPRPRPRPMGPPRP	0.0818
RRIRPRPPRLPRPRPRPCEVPRP	0.00799
RRIRLRPPRLPRPRPRPHPQPRP	0.0301
RRIRPRPPRLPRPRPRPAKEPRP	0.0354
RRIRNRPPRLPRPRPRPTPCPRP	0.043
RRIRERPPRLPRPRPRPTSYPRP	-0.288
RRIRCRPPRLPRPRPRPQNQPRP	-0.00207
RRIRDRPPRLPRPRPRPHWYPRP	-0.212
RRIRRRPPRLPRPRPRPVNVPRP	-0.0902
RRIRPRPPRLPRPRPRPHYDPRP	-0.459
RRIRMRPPRLPRPRPRPPSAPRP	1.2
RRIRIRPPRLPRPRPRPHHLPRP	-0.221
RRIRIRPPRLPRPRPRPIYEPRP	-0.107
RRIRWRPPRLPRPRPRPVTKPRP	0.235
RRIRQRPPRLPRPRPRPDMMPRP	0.142
RRIRDRPPRLPRPRPRPFISPRP	-0.0503
RRIRMRPPRLPRPRPRPNYVPRP	-0.536
RRIRLRPPRLPRPRPRPDFSPRP	0.177
RRIRIRPPRLPRPRPRPYITPRP	-1.34

Sequence	shrunken log2 fold change
RRIRYRPPRLPRPRPRPQSAPRP	-0.21
RRIRVRPPRLPRPRPRPHMEPRP	-0.0402
RRIRSRPPRLPRPRPRPTNHPRP	-0.344
RRIRERPPRLPRPRPRPGHFPRP	0.0631
RRIRTRPPRLPRPRPRPASGPRP	0.614
RRIRIRPPRLPRPRPRPCFLPRP	-0.544
RRIRNRPPRLPRPRPRPPTNPRP	0.151
RRIRDRPPRLPRPRPRPTPPPRP	0.49
RRIRIRPPRLPRPRPRPCKEPRP	1.82
RRIRVRPPRLPRPRPRPLQHPRP	-0.177
RRIRCRPPRLPRPRPRPFCTPRP	-0.401
RRIRGRPPRLPRPRPRPGTDPRP	0.472
RRIRKRPPRLPRPRPRPAQDPRP	0.679
RRIRFRPPRLPRPRPRPAHTPRP	-0.282
RRIRGRPPRLPRPRPRPTPCPRP	0.662
RRIRMRPPRLPRPRPRPFIKPRP	-0.432
RRIRMRPPRLPRPRPRPARFPRP	0.251
RRIRARPPRLPRPRPRPNANPRP	0.49
RRIRIRPPRLPRPRPRPHYQPRP	-0.463
RRIRIRPPRLPRPRPRPERQPRP	0.0212
RRIRWRPPRLPRPRPRPWIIPRP	-0.267
RRIRDRPPRLPRPRPRPPVHPRP	0.105
RRIRPRPPRLPRPRPRPEVYPRP	0.0493
RRIRPRPPRLPRPRPRPKKPPRP	0.0432
RRIRTRPPRLPRPRPRPLMGPRP	0.0521
RRIRVRPPRLPRPRPRPFGMPRP	-0.0877
